Experimental findings from patent US6632621B1, “G protein-coupled receptor-like receptors and modulators thereof” (priority 1999, dated 2003) are described below.

For one assay, the target named is T1, CEGPCR12h receptor (Caenorhabditis elegans, UniProt Q20275).
T1 sequence (Q20275 1-402): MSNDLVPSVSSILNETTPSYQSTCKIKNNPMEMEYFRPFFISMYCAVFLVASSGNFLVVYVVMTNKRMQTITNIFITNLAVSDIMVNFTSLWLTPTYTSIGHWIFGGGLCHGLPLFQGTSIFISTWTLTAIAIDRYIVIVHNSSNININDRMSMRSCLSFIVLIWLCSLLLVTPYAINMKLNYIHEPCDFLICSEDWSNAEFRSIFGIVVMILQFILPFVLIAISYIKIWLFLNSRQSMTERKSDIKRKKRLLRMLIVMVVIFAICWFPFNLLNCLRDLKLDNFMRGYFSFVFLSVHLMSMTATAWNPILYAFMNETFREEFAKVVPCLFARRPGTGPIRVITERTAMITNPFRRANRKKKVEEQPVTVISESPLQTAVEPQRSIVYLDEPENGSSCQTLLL
The assay can be described thus: [35S]GTPγS binding assay, CEGPCR12h expressed in CHO cells. The settings on record: Table 11; one range for the group; results apply to all CEGPCR12 isoforms; read-out: EC50 range. It is filed as biochemical, C. elegans. Here is the method:
(§1) Recombinant pCR3.1 clones encoding invertebrate GPCR-like receptors were transformed into wild-type CHO-K1 cells and functional expression was achieved using a temperature-shift incubation protocol. The CHO-K1 cells were cultured at 37° C. in a humidified atmosphere of 5% CO2 in air in DMEM medium supplemented with 10% heat-inactivated fetal bovine serum (i.e., FBS), 10 μg/ml gentamicin, and 0.1 mM nonessential amino acids to give complete DMEM medium. Additionally, for incubations at temperatures lower than 37° C., the medium was fortified with 10 mM HEPES (pH 7.4). Cells were transfected with recombinant pCR3.1 clones containing GPCR-like receptor DNAs, using LipofectAMINE PLUS™, essentially according to the manufacturer's instructions. […] In separate plastic tubes, PLUS (20 μl/plate; Life Technologies) was added to 0.75 ml/plate of recombinant plasmid DNA in OptiMEM (5 μg/plate; Gibco/BRL—Life Technologies), mixed and incubated at room temperature for 15 minutes. Separately, LipofectAMINE (30 μl/plate) was mixed with 0.75 ml OptiMEM and added to the pre-complexed DNA/PLUS mixture and incubated at room temperature for 15 minutes. The culture medium was then replaced with serum-free transfection medium (DMEM, 5 ml/plate). The DNA-PLUS-LipofectAMINE complex was then added to the plates (1.5 ml/plate) and mixed gently into the medium, followed by a 3 hour incubation at 37° C. in 5% CO2. At this time, the medium was supplemented with complete DMEM medium containing 20% FBS (6.5 ml/plate) and incubation was continued at 37° C. in 5% CO2. After a total of 24 hours at 37° C. in 5% CO2, the medium was replaced with complete DMEM medium fortified with 10 mM HEPES (10 ml/plate) and the cells were moved to an incubator maintained at 28-30° C. in a humidified atmosphere of 5% CO2 in air. The incubation continued for an additional 24 hours, typically at the lower temperature indicated above. A plasmid encoding Green Fluorescent Protein (i.e., GFP, 4 μg/plate) was used for transient GFP expression in CHO-K1 cells to estimate the transfection yields under the same conditions as used for GPCR-like receptor polynucleotides.
(§2) To assess expression, membranes were prepared from transfected CHO-K1 cells. Transfected cells were washed once with ice-cold Dulbecco's phosphate-buffered saline (i.e., PBS), 5 ml per 10 cm plate, and the cells were scraped into 5 ml of the same buffer. Cell suspensions from multiple plates were combined and centrifuged at 500×g for 10 minutes at 4° C. The cell pellet was reconstituted in ice-cold TEE (25 mM Tris, pH 7.4, 5 mM EGTA, 5 mM EDTA). Convenient aliquots were snap-frozen in liquid nitrogen and stored at −70° C. After thawing, the cells were homogenized and centrifuged at 500×g for 5 minutes at 4° C. to pellet nuclei and unbroken cells. Tile supernatant was centrifuged at 47,000×g for 30 minutes at 4° C. The membrane pellet was washed once with TEE, resuspended in 20 mM HEPES, pH 7.4, 100 mM NaCl, 10 mM MgCl2, 1 mM EDTA (assay buffer), distributed into aliquots of 0.5-1.0 ml, and frozen in liquid nitrogen. Membrane aliquots were stored at −70° C. Membrane protein concentration was determined using the BCA Protein Assay Reagent from Pierce (Rockford, Ill.), with bovine serum albumin (i.e., BSA) as a standard.
(§3) Aliquots of cell membranes prepared as described above and stored at −70° C. were thawed, homogenized, and diluted into buffer containing 20 mM HEPES, pH 7.4, 10 mM MgCl2, 1 mM EDTA, and 100 mM NaCl at a concentration of 10-50 μg/ml. Reaction mixtures were prepared in 96-well polypropylene plate, Nunc. Twenty microliters of a 10× putative modulator compound (including but not limited to potential peptide ligands) solution or a water control (20 μl), 18.2 µM GDP (0.11 ml, 10 μM final concentration), and a membrane preparation were mixed and placed on ice. The modulator/ligand-GDP-membrane mixtures were incubated for 20 minutes at room temperature on a shaking platform and then placed on ice.
Background: GTPγS is a poorly hydrolysed GTP analogue; its binding reports G protein activation.

In the next assay the target is T2, CEGPCR3 receptor (Caenorhabditis elegans, UniProt P90745).
T2 sequence (P90745 1-376): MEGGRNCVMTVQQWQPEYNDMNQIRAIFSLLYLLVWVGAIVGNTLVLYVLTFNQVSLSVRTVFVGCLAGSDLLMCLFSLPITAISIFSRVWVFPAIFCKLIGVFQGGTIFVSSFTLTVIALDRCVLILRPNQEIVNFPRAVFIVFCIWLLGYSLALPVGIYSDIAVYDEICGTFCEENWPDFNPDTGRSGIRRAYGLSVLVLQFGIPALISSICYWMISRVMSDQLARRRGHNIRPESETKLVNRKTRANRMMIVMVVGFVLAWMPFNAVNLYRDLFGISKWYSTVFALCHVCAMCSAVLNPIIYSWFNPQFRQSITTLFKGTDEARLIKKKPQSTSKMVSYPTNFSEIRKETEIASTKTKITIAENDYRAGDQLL
In words: [35S]GTPγS binding assay, membranes of CHO cells transiently transfected with CEGPCR3. The class given is biochemical, C. elegans. On the procedure:
as §1, §2, §3

For a further assay, the target named is T3, CEGPCR5 (Caenorhabditis elegans, UniProt Q18179).
T3 sequence (Q18179 1-402): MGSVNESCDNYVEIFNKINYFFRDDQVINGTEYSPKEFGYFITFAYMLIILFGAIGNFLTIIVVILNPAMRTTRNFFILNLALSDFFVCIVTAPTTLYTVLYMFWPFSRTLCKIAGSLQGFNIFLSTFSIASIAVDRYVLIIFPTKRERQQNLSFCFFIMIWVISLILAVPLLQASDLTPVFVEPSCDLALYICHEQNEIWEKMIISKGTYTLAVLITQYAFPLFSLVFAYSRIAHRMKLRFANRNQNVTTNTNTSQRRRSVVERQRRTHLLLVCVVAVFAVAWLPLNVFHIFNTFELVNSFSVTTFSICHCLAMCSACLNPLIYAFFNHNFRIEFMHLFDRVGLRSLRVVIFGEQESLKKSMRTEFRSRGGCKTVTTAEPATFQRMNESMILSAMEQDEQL
The assay can be described thus: [35S]GTPγS binding assay, CEGPCR5 expressed in CHO cells. The class given is biochemical, C. elegans. Here is the method: as §1, §2, §3

Assay [1] deals with T4, CEGPCR4 (C. elegans).
T4 construct: Expressed in CHO cells; also called CEGPCR4 receptor; CEGPCR4/CHO membranes
T4 chain: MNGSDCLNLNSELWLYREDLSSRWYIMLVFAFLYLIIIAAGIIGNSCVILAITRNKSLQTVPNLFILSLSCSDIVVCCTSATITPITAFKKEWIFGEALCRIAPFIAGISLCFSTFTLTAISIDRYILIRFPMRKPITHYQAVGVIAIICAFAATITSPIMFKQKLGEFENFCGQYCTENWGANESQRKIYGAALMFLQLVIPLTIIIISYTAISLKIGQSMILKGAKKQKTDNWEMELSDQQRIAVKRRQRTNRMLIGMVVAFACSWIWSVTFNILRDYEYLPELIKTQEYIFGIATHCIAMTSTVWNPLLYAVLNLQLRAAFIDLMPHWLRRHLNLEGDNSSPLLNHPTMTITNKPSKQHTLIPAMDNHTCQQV
The assay can be described thus: competition binding assay, CEGPCR4/CHO membranes; IC50 range printed once for block r26-r35.

The target of assay [2] is T4, CEGPCR4. In words: competition binding assay, CEGPCR4/CHO membranes; IC50 range printed once for block r39-r54.
The target in assay [3] is T4, CEGPCR4. The assay can be described thus: competition binding assay, CEGPCR4/CHO membranes; IC50 range printed once for block r9-r18.
[4] abbreviates: EC50, single values, GTPγS assay.
Setting [5] is: EC50 range, Table 7, one range for the group of peptides, cells 24 h 37° C. then 24 h 28° C.

Where no end group is shown, it is not given here. [ ]: non-standard residue; d: D form. Tyr(3-I) = N[C@@H](Cc1ccc(O)c(I)c1)C(=O)O

Take GGPQGPLRF-NH2 [GGPQGPLRF-NH2]: the figures for the EC50 on CEGPCR12h receptor, at CEGPCR3 receptor (setting [4]) and at CEGPCR3 receptor (setting [5]) were 1500 to 3000 nM, 152 nM and 150 to 400 nM, respectively.

Turning to GPSGPLRF-NH2 [GPSGPLRF-NH2], the EC50 (as a rule, the concentration at which the effect is half-maximal) is 422 nM on CEGPCR3 receptor (setting [4]) and 150 to 400 nM at CEGPCR3 receptor (setting [5]).

Take GNSFLRF-NH2 [GNSFLRF-NH2]: the EC50 on CEGPCR5 was 80 to 800 nM; at CEGPCR3 receptor (setting [4]), 7900 nM; at CEGPCR3 receptor (EC50 range, Table 7, cells 24 h 37° C. then 24 h 28° C.), about 8000 nM. Moreover, the “receptor activation by matched ligand” value on CEGPCR3 receptor (membranes from cells transfected and maintained at 37° C.) is recorded as “not detectably activated”. For the same molecule, the “potency lower than that of the two C. elegans flp15 peptides” value on CEGPCR3 receptor (ratio of EC50 values) was 19-52 fold. In addition, the “ligand-induced [35S]GTPγS binding” value at CEGPCR3 receptor (temperature shift to 28° C. 24 hours after transfection) was “significant stimulation”.

B1: GGPQGPLRF-NH2 (peptide)
peptide: GGPQGPLRF-NH2
notes: flp15
Consider B1, for which, in the assay with CEGPCR4 [1], the binding result was “binds”.

B2: SPLGTMRF-NH2 (peptide)
peptide: SPLGTMRF-NH2
notes: flp3
Turning to B2, in the assay with CEGPCR4 [1], the binding result is given as “binds”.

B3: DVPGVLRF-NH2 (peptide)
peptide: DVPGVLRF-NH2
notes: flp18
Take B3: in the assay with CEGPCR4 [2], the binding result was “binds”.

B4: Y-VPGVLRF-NH2 (peptide)
peptide: YVPGVLRF-NH2
notes: synthetic
In the case of B4, in the assay with CEGPCR4 [2], the binding result was “binds”.

B5: NGAPQPFVRF-NH2 (peptide)
peptide: NGAPQPFVRF-NH2
notes: flp11 (species cell stands one row higher, r34c4)
B5: the binding result with CEGPCR4 [1] is listed as “binds”.

B6: 3-Iodo-Y-VPGVLRF-NH2 (peptide)
peptide: [Tyr(3-I)]VPGVLRF-NH2
modifications: N-terminus assumed
SMILES: CC(C)C[C@H](NC(=O)[C@@H](NC(=O)CNC(=O)[C@@H]1CCCN1C(=O)[C@@H](NC(=O)[C@@H](N)Cc1ccc(O)c(I)c1)C(C)C)C(C)C)C(=O)N[C@@H](CCCNC(=N)N)C(=O)N[C@@H](Cc1ccccc1)C(N)=O
notes: synthetic
As for B6, the binding result with CEGPCR4 [2] is on record as “binds”.

B7: Y-DVPGVLRF-NH2 (peptide)
peptide: YDVPGVLRF-NH2
notes: synthetic
B7: in the assay with CEGPCR4 [2], the binding result was “binds”.

B8: EIPGVLRF-NH2 (peptide)
peptide: EIPGVLRF-NH2
notes: flp18
Turning to B8, the binding result with CEGPCR4 [3] is “binds”.

B9: SAEPFGTMRF-NH2 (peptide)
peptide: SAEPFGTMRF-NH2
modifications: not fully specified; printed as SAEPFGTMRF-NH2
notes: flp3
As for B9, the binding result with CEGPCR4 [1] is recorded as “binds”.

B10: EIVFHQISPIFFRF-NH2 (peptide)
peptide: EIVFHQISPIFFRF-NH2
notes: flp14 as printed
Regarding B10, the binding result in the assay with CEGPCR4 [1] was “binds”.

B11: 3-Iodo-Y-PGVLRF-NH2 (peptide)
peptide: [Tyr(3-I)]PGVLRF-NH2
modifications: N-terminus assumed
SMILES: CC(C)C[C@H](NC(=O)[C@@H](NC(=O)CNC(=O)[C@@H]1CCCN1C(=O)[C@@H](N)Cc1ccc(O)c(I)c1)C(C)C)C(=O)N[C@@H](CCCNC(=N)N)C(=O)N[C@@H](Cc1ccccc1)C(N)=O
notes: synthetic
Turning to B11, the binding result in the assay with CEGPCR4 [2] is on record as “binds”.

B12: Y-PGVLRF-NH2 (peptide)
peptide: YPGVLRF-NH2
notes: synthetic
Consider B12, for which the binding result with CEGPCR4 [2] is listed as “binds”.

B13: SDNFMRF-NH2 (peptide)
peptide: SDNFMRF-NH2
Take B13: the binding result in the assay with CEGPCR4 [1] is reported as “binds”.

B14: PDNFMRF-NH2 (peptide)
peptide: PDNFMRF-NH2
In the case of B14, the binding result with CEGPCR4 [1] is listed as “binds”.

B15: TNRNFLRF-NH2 (Lobster peptide II) (peptide)
peptide: TNRNFLRF-NH2
As for B15, the binding result in the assay with CEGPCR4 [1] was “binds”.

B16: Ac-VPGVLRF-NH2 (peptide)
peptide: Ac-VPGVLRF-NH2
notes: synthetic
For B16, the binding result in the assay with CEGPCR4 [2] is “binds”.

B17: 3-Iodo-Y-GVLRF-NH2 (peptide)
peptide: [Tyr(3-I)]GVLRF-NH2
modifications: N-terminus assumed
SMILES: CC(C)C[C@H](NC(=O)[C@@H](NC(=O)CNC(=O)[C@@H](N)Cc1ccc(O)c(I)c1)C(C)C)C(=O)N[C@@H](CCCNC(=N)N)C(=O)N[C@@H](Cc1ccccc1)C(N)=O
notes: synthetic
As to B17, the binding result in the assay with CEGPCR4 [2] was “binds”.
